Results reported in the supplement of paper PMC11865577.

The sequences below were run on TO-3-N3 (biotin conjugate) (assay: pull-down binding Z-score (relative to library population); higher = stronger binding). Details: RNA library: Library-2.
Outline: (§1)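 Binding is given as a Z-score against the library mean and standard deviation, calculated after removing the beads-only signal and averaging barcoded replicate probes without their highest and lowest values. Cy5- or Cy3-end-labelled RNA library (1 μg) was heat-folded in phosphate/NaCl/KCl buffer and incubated 60 min at 25 °C with streptavidin beads bearing 100 pmol of biotin-conjugated small molecule. After three washes, RNA eluted in hot SDS was hybridised to a DNA barcode microarray for 20 h at 55.5 °C.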

Sequence	pull-down binding Z-score
UGGAAGCUCCAGGUGCCAACCACCUGCCUCUA [hsa-mir-6731]	0.00854
UGGAAGGAAUGGGAUCUACUUCCA [hsa-mir-3612]	0.389
UGGACAGAAAUUUCCUUUUGAGGAAAUCUUUCCC [hsa-mir-4308]	-0.486
UGGACCUCAGGGAAGAGGCUG [hsa-mir-4673]	-0.608
UGGACUGUGUACCAAUUUCCA [hsa-mir-194-1]	-0.134
UGGAGCCAGGGGGCCCAGGUCUACAGCUUCUCCCCGCUCCC [hsa-mir-6752]	-0.138
UGGAGCUAGACCACAUGGGUUCA [hsa-mir-5100]	-0.111
UGGAGGAGUCUGGUGGCCUGUUCUCUU [hsa-mir-6754]	-0.348
UGGAGGCUGACCUCUUACUUUCGGUCGGUCUUCUU [hsa-mir-4258]	-0.176
UGGAGGCUGCAGUGAGCCGAGAUCGAGCCACUGUACUCCA [hsa-mir-1273e]	0.259
UGGAGGGGGUUUGUUUGCUUAUUCCCCUCU [hsa-mir-6737]	0.936
UGGAGGUGAUGGAUGUUUUCCUCCG [hsa-mir-671]	-0.607
UGGAGGUGAUGGGGGCAGGGGAUGGGUCUCACCCUCCC [hsa-mir-5088]	3.33
UGGAGUCAGUAUUGGUCUGGCCA [hsa-mir-4255]	-0.417
UGGAGUUUUUUUUUCCUCCUG [hsa-mir-4329]	0.315
UGGAUCACGCCGACAACACUGGUCU [hsa-mir-4635]	0.534
UGGAUUUGAAAUGGUCCCACUCCUGACGAUCCU [hsa-mir-6748]	-0.358
UGGCAAAGACAUAGAUUGUUUAGCUACCCCUUUGCCA [hsa-mir-3119-2]	-0.516
UGGCAAAGGGGUAGCUAAACAAUCUAUGUCUUUGCCA [hsa-mir-3119-1]	-0.367

Sequence	pull-down binding Z-score
UGGCAAUUCAGUAAAAAUGCUCA [hsa-mir-6715b]	-0.296
UGGCACAGAUCCAAUACCUUCUGUCCCC [hsa-mir-6810]	0.0686
UGGCCAUUUCCUACCA [hsa-mir-617]	-0.72
UGGCCUGGCAGUGCGUCGGAAGAACAGGGCGGGUGGGGCC [hsa-mir-4792]	4
UGGCGACACUCGCGCCAGCUCCCGGGACGGCUGGGCUCGGGCUGGUCGCCGA [hsa-mir-7845]	0.0309
UGGCGGCGGCGAGGACACCGCCGCU [hsa-mir-4469]	1.53
UGGCUGCUUGGGUCAAGUCAGCAGCCA [hsa-mir-449b]	-0.201
UGGCUGUAGGGCAGCAGUCA [hsa-mir-8079]	1.29
UGGCUUCUGCCUCUUUCUUUGUGGAAGCCA [hsa-mir-4269]	0.255
UGGCUUGCACCGUGACUCCCUCUCACCAAGCAAGUGUC [hsa-mir-4440]	-0.387
UGGGAGGUAAGAGCUCUUCACCCUUCA [hsa-mir-197]	-0.46
UGGGAGUGAUCCCAACAGCUGAGCUCCCU [hsa-mir-7106]	0.772
UGGGCAGUUCUUCUGCUGG [hsa-mir-1587]	0.21
UGGGCCAAG [hsa-mir-3620]	0.746
UGGGCUCCCCUAGACUAGGACUCCA [hsa-mir-1825]	-0.367
UGGGUAGAAAGUAUUAUUCUAUUCA [hsa-mir-664b]	0.0201
UGGGUAGGAAUAUCCUGGAUCCCCU [hsa-mir-3189]	-0.0266
UGGGUCAAGGAGCCCA [hsa-mir-4530]	-0.163
UGGGUGGAUCCUCUAUUUCCUUACGUGGGCCACUGG [hsa-mir-432]	0.45

Sequence	pull-down binding Z-score
UGGGUUAAGCCGAGCUGG [hsa-mir-4507]	0.478
UGGGUUGAACUGUGUGGACAAGCUCA [hsa-mir-181b-1]	-0.111
UGGGUUGUGUCAGUGUCAGACCUC [hsa-mir-146a]	-0.496
UGGGUUUGAGUCUGAAUCAACUCA [hsa-mir-181b-2]	-0.728
UGGUAUCCUGACCG [hsa-mir-1973]	0.627
UGGUCAGAUAUCCCAU [hsa-mir-8060]	-0.323
UGGUCAGGCGGCU [hsa-mir-3917]	-0.142
UGGUGCAAUAAUUGG [hsa-mir-1302-7]	0.418
UGGUGGAGAUGGAGAGCCCUGAGCCUCCA [hsa-mir-6777]	0.164
UGGUGGGAGAGGAGCCCCACUGUGGAAGUCUGACCCCCACA [hsa-mir-6785]	1.05
UGGUGGGGGCCGGGGCAGGCCCAGCGAAA [hsa-mir-648]	1.96
UGGUGGUGAAUUCAUGAGUCGCCA [hsa-mir-3115]	-0.509
UGGUUACGUGUUUGAUGGUUAAUCA [hsa-mir-376a-2]	-0.155
UGGUUAGCUUUUUUUUUUUUUUGAGAUGGAGUCUGGCUC [hsa-mir-8086]	-0.554
UGGUUGAAUAUGUGAAUGGCAUCG [hsa-mir-449a]	-0.0496
UGGUUUCACUA [hsa-mir-3713]	0.624
UGGUUUGACACAGAGCUAAAUCA [hsa-mir-5007]	0.00148
UGUAAAAUGUAAUAACAUUUCUUAUGUUUAAAACACUUUACA [hsa-mir-4801]	-0.755

These sequences were tested on TO-3-N3-2 (biotin conjugate) in the same assay as above. Details: RNA library: Library-2.
Outline: as §1

Sequence	pull-down binding Z-score
UGCUCAGUGGAGUUAUUUUGAGCA [hsa-mir-4495]	-0.621
UGCUCCUUGAACAGGAGGAGCA [hsa-mir-4708]	-0.405
UGCUCUGAUGAAGACCCAUGUGGC [hsa-mir-621]	0.285
UGCUCUGGUGACUGAGGACCGCCAGGCA [hsa-mir-4763]	-0.197
UGCUGAUGUCAUCAGUCAUAACUUCUGCG [hsa-mir-6854]	0.131
UGCUGGAGAAGUGUUU [hsa-mir-557]	0.0975
UGCUGGUGCUAGAGAGGAAAGCA [hsa-mir-4748]	0.315
UGCUGUGAGCUAGCCAGCAG [hsa-mir-5693]	0.0593
UGCUGUGCUGUGCUGAGCAGGGCUGAGCUG [hsa-mir-4539]	0.178
UGCUGUUGCUGUGAAAGCUGA [hsa-mir-6823]	0.304
UGCUGUUGGAGACUCGAUUGUUGGUGACAGCGAAAGAACGAUAACAAA [hsa-mir-3655]	-0.149
UGCUUCAGUUUCACUCCAAGCA [hsa-mir-4771-2_4771-1]	-0.126
UGCUUCCACAUAGCAGCA [hsa-mir-4752]	-0.24
UGCUUGACCUGAAUGCUACAAGGCA [hsa-mir-103b-2]	-0.122
UGCUUGAUCCAUAUGCAACAAGGCA [hsa-mir-103b-1]	0.244
UGCUUUACUUUUAAUGGCA [hsa-mir-548k]	-0.358
UGCUUUGUUAGAAACAAAAAGCA [hsa-mir-4679-1]	0.248
UGCUUUUUGUUUCUAACAAAGCA [hsa-mir-4679-2]	-0.407
UGGAAGCUCCAGGUGCCAACCACCUGCCUCUA [hsa-mir-6731]	-0.134

Sequence	pull-down binding Z-score
UGGAAGGAAUGGGAUCUACUUCCA [hsa-mir-3612]	0.46
UGGACAGAAAUUUCCUUUUGAGGAAAUCUUUCCC [hsa-mir-4308]	-0.309
UGGACCUCAGGGAAGAGGCUG [hsa-mir-4673]	-0.191
UGGACUGUGUACCAAUUUCCA [hsa-mir-194-1]	-0.379
UGGAGCCAGGGGGCCCAGGUCUACAGCUUCUCCCCGCUCCC [hsa-mir-6752]	-0.105
UGGAGCUAGACCACAUGGGUUCA [hsa-mir-5100]	-0.115
UGGAGGAGUCUGGUGGCCUGUUCUCUU [hsa-mir-6754]	-0.0949
UGGAGGCUGACCUCUUACUUUCGGUCGGUCUUCUU [hsa-mir-4258]	-0.43
UGGAGGCUGCAGUGAGCCGAGAUCGAGCCACUGUACUCCA [hsa-mir-1273e]	-0.0556
UGGAGGGGGUUUGUUUGCUUAUUCCCCUCU [hsa-mir-6737]	0.705
UGGAGGUGAUGGAUGUUUUCCUCCG [hsa-mir-671]	-0.398
UGGAGGUGAUGGGGGCAGGGGAUGGGUCUCACCCUCCC [hsa-mir-5088]	2.93
UGGAGUCAGUAUUGGUCUGGCCA [hsa-mir-4255]	0.104
UGGAGUUUUUUUUUCCUCCUG [hsa-mir-4329]	0.465
UGGAUCACGCCGACAACACUGGUCU [hsa-mir-4635]	0.163
UGGAUUUGAAAUGGUCCCACUCCUGACGAUCCU [hsa-mir-6748]	-0.155
UGGCAAAGACAUAGAUUGUUUAGCUACCCCUUUGCCA [hsa-mir-3119-2]	-0.495
UGGCAAAGGGGUAGCUAAACAAUCUAUGUCUUUGCCA [hsa-mir-3119-1]	0.00332
